In patent publication US20240076343A1 (CEPHALON, published 2024):

What was measured:
[1] = target: human PD-1 on Jurkat Effector cells of the PD-1/PD-L1 blockade bioassay (Promega, Cat #J1255) (human, UniProt Q15116 25-288); test: cell-based or functional assay
[2] = target: T1, recombinant His-tagged human PD-1 (Acro Biosystems) (human, UniProt Q15116 25-167); test: SPR Carterra LSA;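 further: antibodies or fusion proteins amine-coupled on an HC30M chip, soluble His-tagged human or cynomolgus PD-1 titrated over them, non-regenerative kinetics, constants fitted from titration curves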
T1 construct: His-tagged; also called hPD-1
T1 sequence (Q15116 25-167 limits assumed): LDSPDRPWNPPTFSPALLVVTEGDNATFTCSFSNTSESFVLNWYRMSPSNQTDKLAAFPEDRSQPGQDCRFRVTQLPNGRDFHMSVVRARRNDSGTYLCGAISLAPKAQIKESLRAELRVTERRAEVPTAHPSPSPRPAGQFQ
Protocol: Surface plasmon resonance binding analysis was performed using a high-throughput SPR Carterra® LSA™ to determine binding affinities of anti-hPD-1 antibodies and anti-hPD-1-attenuated hIL-2 fusion proteins. Proteins were diluted to 2 or 10 μg/mL in 10 mM sodium acetate pH 4.5 containing 0.01% Tween-20 and coupled to a HC30M (Carterra Bio) chip using sulpho-N-hydroxysuccinimide/1-ethyl-3-(3-dimethylamino) propyl carbodiimide (sulpho-NHS/EDC) coupling chemistry and blocked with ethanolamine. A non-regenerative kinetic coupling process was used to determine binding kinetics to commercially sourced recombinant His-tagged human PD-1 and His-tagged cynomolgus PD-1 (Acro Biosystems).
The association constants (kₐ), dissociation constants (kd), and equilibrium constants (KD) of various anti-hPD-1 antibodies and anti-hPD-1 antibody-attenuated hIL-2 fusion proteins binding to recombinant human or cynomolgus PD-1 proteins was determined from the titration curves and the Carterra Kinetics software. The maximal feasible SPR signal generated (Rₘₐₓ) and residual standard deviation (Res SD) was also calculated.

[3] = target: T2, recombinant His-tagged cynomolgus PD-1 (Acro Biosystems) (cynomolgus, UniProt B0LAJ3 25-170); test: SPR Carterra LSA;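 further: antibodies or fusion proteins amine-coupled on an HC30M chip, soluble His-tagged human or cynomolgus PD-1 titrated over them, non-regenerative kinetics, constants fitted from titration curves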
T2 construct: His-tagged; also called Cyno PD-1; not shown: His tag (and any linker) of the Acro Biosystems product
T2 sequence (B0LAJ3 entry or part of it limits assumed): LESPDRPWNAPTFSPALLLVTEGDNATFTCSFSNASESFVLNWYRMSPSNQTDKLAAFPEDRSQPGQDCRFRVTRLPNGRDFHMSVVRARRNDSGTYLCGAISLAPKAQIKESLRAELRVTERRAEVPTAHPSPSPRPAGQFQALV

human PD-1 on Jurkat Effector cells of the PD-1/PD-L1 blockade bioassay (Promega, Cat #J1255), sequence (Q15116 25-288): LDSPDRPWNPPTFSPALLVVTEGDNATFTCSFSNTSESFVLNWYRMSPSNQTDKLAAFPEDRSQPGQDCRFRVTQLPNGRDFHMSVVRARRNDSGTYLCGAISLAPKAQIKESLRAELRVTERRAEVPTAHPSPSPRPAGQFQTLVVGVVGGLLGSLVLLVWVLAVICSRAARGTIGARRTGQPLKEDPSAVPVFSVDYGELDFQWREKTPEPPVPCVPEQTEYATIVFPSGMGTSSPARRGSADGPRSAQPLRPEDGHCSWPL

Row | Binder | luminescence (RLU), PD-1/PD-L1 blockade bioassay [1] [RLU] | Kd [2] [nM] | koff [2] [s⁻¹] | kon [2] [M⁻¹ s⁻¹] | Kd [3] [nM] | koff [3] [s⁻¹] | kon [3] [M⁻¹ s⁻¹]
1 | 2A3.H7-hIgG4 (antibody, V domains shown) VH: EVQLLESGGGLVQPGGSLRLSCAASGFTFKDYCMTWVRQAPGKGLEWVSAIVYSGGSTYYADSVKGRFTISRDNSKNTLYLQMNNLRAEDTAVYYCAKYTRASYFYDAMDVWGQGTTVTVSS VL: EIVLTQSPGTLSLSPGERATLSCRASQSIGRSFLAWYQQKPGQAPRLLIYDASTRAADIPARFSGSGSGTDFTLTISSLEPEDFAVYYCQQYYDWPPLSFGGGTKVEIKR | ~3000 |  |  |  |  |  | 
2 | 1D5-hIgG4 (antibody, V domains shown) VH: EVQLLESGGGLVQPGGSLRLSCVGSGFNFKDYCMTWVRQAPGKGLEWVSAIVYSGGSTYYADSVKGRFTISRDNSKNTLYLQMNSLRAEDTAVYYCAKYTRGSYFYDAMDVWGQGTTVTVSS VL: EIVLTQSPGTLSLSPGERATLSCRASQSIGRSFLAWYQQKPGQAPRLLIYDASTRATDIPDRFSGSGSGTEFTLTISSLQSEDFAVYYCQQYYDWPPLTFGGGTKVEIKR | ~3000 |  |  |  |  |  | 
3 | 1H9-hIgG4 (antibody, V domains shown) VH: EVQLLESGGGLVQPGGSLRLSCVGSGFNLKDYCMTWVRQAPGKGLEWVSAIVYSGGSTYYADSVKGRFTISRDNSKNTLYLQMNSLRAEDTAVYYCAKYTRGSYFYDAMDVWGQGTTVTVSS VL: EIVLTQSPGTLSLSPGERATLSCRASQSIGRSFLAWYQQKPGQAPRLLIYDASTRAADIPDRFSGSGSGTDFTLTINRLEPEDFAVYYCQQYYDWPPLTFGGGTKVEIKR | ~3000 |  |  |  |  |  | 
4 | OMC476pG10-hIgG4 (antibody, V domains shown) VH: DVQLVESGGGVVRPGGSLRLSCAASGFTFSIYAMSWVRQAPGEGLEWVSHISASGGSTYYADSVKGRFAISRDNSKNTLYLQMNSLRAEDTAVYYCTTNLGSDYWGLGTLVTVSS VL: QSVLTQPPSASGTPGQRVTISCSGSYSDIGTNYVYWYQQLPGTAPKLLIFATDRRPSGVPDRFSGSKSGTSASLAISGLQSEDEADYYCGTWDDSLNVWVFGGGTKLTVLG |  | 44 | 0.0041 | 93000 | 487 | 0.06 | 120000
5 | OMC476pH10-hIgG4 (antibody, V domains shown) VH: DVQLVESGGGVVRPGGSLRLSCAASGFTFSIYAVSWVRQAPGEGLEWVSHISASGGSTYYADSVKGRFAISRDNSKNTLYLQMNSLRAEDTAVYYCTTNLGSDYWGLGTLVTVSS VL: QSVLTQPPSASGTPGQRVTISCSGSYSDIGTNYVYWYQQLPGTAPKLLIFATDRRPSGVPDRFSGSKSGTSASLAISGLQSEDEADYYCGTWDDSLNVWVFGGGTKLTVLG |  | 64 | 0.0065 | 100000 | 480 | 0.059 | 120000
6 | OMC.2.C6-hIgG4 (antibody, V domains shown) VH: EVQLLESGGGLVQPGGSLRLSCTASGFTFSSYEMQWVRQAPGKGLEWVLGITSSSSHIFYADSVKGRFTVSRDNSKNTLYLQMNSLRAEDTAVYYCTKDLNSYYGLDVWGQGTTVTVSS VL: QSVMTQPPSASGTPGQRVTISCSGSTSNLGNNYVSWYQHLPGTAPKLLIYGNDQRPSGVPDRFSGSKSGTSASLAISGLQSDDEADYYCSSWDASLNVWVFGGGTKLTVLG |  | 12 | 0.00066 | 57000 | 13 | 0.00074 | 55000
7 | OMC.1.B6-hIgG4 (antibody, V domains shown) VH: EVQLLESGGGLVQPGGSLRLSCAASGFTFSSNYMSWVRQAPGKGLEWVSAISSSGGTIFYADSVKGRFTISRDNSKNTLYLQMNSLRAEDTAVYYCAKHKWNAVYYDGMDVWGQGTTVTVSS VL: QSVLTQPPSASGTPGQRVTISCSGSNSNIGRNLVNWYQQLPGTAPKLLIYTIDQRPSGVPDRFSGSKSGTSASLVISGLQSEDEADYYCAAWDGSLNAWVFGGGTKLTVLG [OMC.1.B6-hIgG4, listing 1 of 2 here] | ~3000 |  |  |  |  |  | 
8 | OMC.1.B6-hIgG4 (antibody, V domains shown) VH: EVQLLESGGGLVQPGGSLRLSCAASGFTFSSNYMSWVRQAPGKGLEWVSAISSSGGTIFYADSVKGRFTISRDNSKNTLYLQMNSLRAEDTAVYYCAKHKWNAVYYDGMDVWGQGTTVTVSS VL: QSVLTQPPSASGTPGQRVTISCSGSNSNIGRNLVNWYQQLPGTAPKLLIYTIDQRPSGVPDRFSGSKSGTSASLVISGLQSEDEADYYCAAWDGSLNAWVFGGGTKLTVLG [OMC.1.B6-hIgG4, listing 2 of 2 here] |  | 52 | 0.004 | 77000 | 51 | 0.0044 | 88000
9 | OMC.1.D6-hIgG4 (antibody, V domains shown) VH: EVQLLESGGGLVQPGGSLRLSCAASGFTFSDYYMSWVRQAPGKGLEWVSAISSSGGTIFYADSVKGRFIISRDNSKNTLYLQMNSLRAEDTAVYYCAKHKWNDVYYDAMDVWGQGTTVTVSS VL: QSVLTQPPSASGTPGQRVTISCSGSNSNIGRNLVNWYQQLPGTAPKLLIYTVDQRPSGVPDRFSGSKSGTSASLAISGLASEDEADYYCAAWDSSLNSWVFGGGTKLTVLG [OMC.1.D6-hIgG4, listing 1 of 2 here] | ~3000 |  |  |  |  |  | 
10 | OMC.1.D6-hIgG4 (antibody, V domains shown) VH: EVQLLESGGGLVQPGGSLRLSCAASGFTFSDYYMSWVRQAPGKGLEWVSAISSSGGTIFYADSVKGRFIISRDNSKNTLYLQMNSLRAEDTAVYYCAKHKWNDVYYDAMDVWGQGTTVTVSS VL: QSVLTQPPSASGTPGQRVTISCSGSNSNIGRNLVNWYQQLPGTAPKLLIYTVDQRPSGVPDRFSGSKSGTSASLAISGLASEDEADYYCAAWDSSLNSWVFGGGTKLTVLG [OMC.1.D6-hIgG4, listing 2 of 2 here] |  | 42 | 0.0017 | 41000 | 694 | 0.04 | 58000
11 | Abz1mod-hIgG4 (antibody, V domains shown) VH: QVQLVQSGSELKKPGASVKVSCKASGYTFTSYAMHWVRQAPGQGLEWMGYISPFTGRATYAQGFTGRFVFSLDTSVSTAYLQISSLKAEDTAVYYCARDYDYRYYYAMDYWGQGTTVTVSS VL: EIVLTQSPDFQSVTPKEKVTITCRASQSIPPQFLHWYQQKPDQSPKLLIKAASQRASGVPSRFSGSGSGTDFTLTINSLEAEDAATYYCHQFHSSPLTFGGGTKLEIKR |  | 0.426 | 6e-05 | 140000 | 3.7 | 0.00062 | 170000
12 | Anti-PD-1 clone J110 hIgG1 (antibody, V domains shown) VH: DVQLQESGPGLVKPSQSLSLTCTVTGHSITSDYAWNWIRQFPGDKLEWMGYISYSGYTTYNPSLKSRVSITRDTSKNQFFLQLNSVTTEDTATYFCARDLDYGPWFAYWGQGTLVTVSA VL: DIQMTQSPASLSASVGETVTLTCRASENIHNYLAWYQQKQGKSPQLLVYNVKTLADGVPSRFSGSGSGTQYSLKINSLQPEDFGSYYCQHFWSSPWTFGGGTKVEIKR |  | 10 | 0.001 | 100000 | 1200 | 0.05 | 41000
13 | A2-hIgG4 (antibody, V domains shown) VH: DVQLVESGGGLVQPGGSLRLSCAASGFTFDISAMSWVRQAPGKGLEWVSTISGSAYSTYYADSVKGRFTISRDNSKSTLYLQMNSLRAEDTAVYYCAREIFSDYWGLGTLVTVSS VL: QSVLTQPPSASGTPGQRVTISCSGSTSNIGRESVYWYQQLPGTAPKLLIYSNVQRPSGAPNRFSGSKSGTSASLAISGLQSEDEADYYCGTWDDSLNGWVFGGGTKLTVLG |  | 36 | 0.0013 | 37000 | 589 | 0.04 | 68000
14 | OMC476pE4-hIgG4 (antibody, V domains shown) VH: DVQLVESGGGVVRPGESLRLSCAASGFTFSTDAMGWVRQAPGEGLEWVSLISGSGYSTYYADSVKGRFTISRDNSKNTLYLQMNSLTAEDTAVYYCAKNSLAFFDYWGLGTLVTVSS VL: QSVLTQPPSASGTPGQRVTISCSGGSSNIGRESVNWYQQLPGTAPKLLIYSTDRRPSGVPDRFSGSKSGTSASLAISGLQSEDEADYYCGTWDNDLNGWVFGGGTKLTVLG |  | 11 | 0.00088 | 79000 | 331 | 0.035 | 100000
15 | G12-hIgG4 (antibody, V domains shown) VH: DSLVESGGGLVQPGGSLRLSCAASGFTFDISAMSWVRQAPGKGLEWVSTISGSAYSTYYADSVKGRFTISRDNSKSTLYLQMNSLRAEDTAVYYCAREIFSDYWGLGTLVTVSS VL: QSVLTQPPSASGTPGQRVTISCSGSTSNIGRESVYWYQQLPGTAPKLLIYLNSQRPSGVPDRFSGSKSGTSASLAISGLQSEDVADYYCGTWDDSLNGWVFGGGTKLTVLG |  | 50 | 0.0026 | 53000 | 754 | 0.065 | 86000
16 | D12-hIgG4 (antibody, V domains shown) VH: DVQLVESGGGLVQPGGSLRLSCAASGFTFDISAMSWVRQAPGKGLEWVSTISGSAYSTYYADSVKGRFTISRDNSKSTLYLQMNSLRAEDTAVYYCAREIFSDYWGLGTLVTVSS VL: QSVLTQPPSASGTPGQRVTISCSGNTSNIGRESVYWYQQLPGTAPKLLIYSNVQRPSGVPDRFSGSKSGTSASLAISGLQSEDEADYYCGTWDDSLNGWVFGGGTKLTVLG |  | 8.1 | 0.00046 | 57000 | 272 | 0.016 | 59000
17 | 2H7-hIgG4-LE (antibody) heavy: not shown light: EIVLTQSPGTLSLSPGERATLSCRASQSIGKSFLAWYQQKPGQAPRLLIYDASTRAADIPARFSGSGSGTDFTLTISSLEPEDFAVYYCQQYYDWPPLSFGGGTKVEIKRTVAAPSVFIFPPSDEQLKSGTASVVCLLNNFYPREAKVQWKVDNALQSGNSQESVTEQDSKDSTYSLSSTLTLSKADYEKHKVYACEVTHQGLSSPVTKSFNRGEC |  | 3.1 | 0.00082 | 260000 | 7.1 | 0.001 | 140000
18 | 2H7-hIgG4-LAGA (antibody) heavy: not shown light: EIVLTQSPGTLSLSPGERATLSCRASQSIGKSFLAWYQQKPGQAPRLLIYDASTRAADIPARFSGSGSGTDFTLTISSLEPEDFAVYYCQQYYDWPPLSFGGGTKVEIKRTVAAPSVFIFPPSDEQLKSGTASVVCLLNNFYPREAKVQWKVDNALQSGNSQESVTEQDSKDSTYSLSSTLTLSKADYEKHKVYACEVTHQGLSSPVTKSFNRGEC |  | 5.3 | 0.00091 | 170000 | 12 | 0.0011 | 91000
